The text below walks through data of paper PMC3164674.

For the data set, the target named is MUC1 (mucin 1) on the surface of MCF-7 cells (human (MCF-7 breast cancer cell line)) (UniProt P15941). As to the kind of experiment: flow cytometry on cells. To be noted: 300 nM DNA; 5 mM Mg2+; MUC1+ MCF-7 vs MUC1- HepG2; S2.2 with 48-nt DNA spacer at 3' end; 100 mM NaCl, 5 mM MgCl2, pH 7.2, 300 nM DNA, 30 min; temperature not stated. (In general: A flow cytometer gives signals particle by particle.)
UniProt P15941, sequence (P15941 whole entry): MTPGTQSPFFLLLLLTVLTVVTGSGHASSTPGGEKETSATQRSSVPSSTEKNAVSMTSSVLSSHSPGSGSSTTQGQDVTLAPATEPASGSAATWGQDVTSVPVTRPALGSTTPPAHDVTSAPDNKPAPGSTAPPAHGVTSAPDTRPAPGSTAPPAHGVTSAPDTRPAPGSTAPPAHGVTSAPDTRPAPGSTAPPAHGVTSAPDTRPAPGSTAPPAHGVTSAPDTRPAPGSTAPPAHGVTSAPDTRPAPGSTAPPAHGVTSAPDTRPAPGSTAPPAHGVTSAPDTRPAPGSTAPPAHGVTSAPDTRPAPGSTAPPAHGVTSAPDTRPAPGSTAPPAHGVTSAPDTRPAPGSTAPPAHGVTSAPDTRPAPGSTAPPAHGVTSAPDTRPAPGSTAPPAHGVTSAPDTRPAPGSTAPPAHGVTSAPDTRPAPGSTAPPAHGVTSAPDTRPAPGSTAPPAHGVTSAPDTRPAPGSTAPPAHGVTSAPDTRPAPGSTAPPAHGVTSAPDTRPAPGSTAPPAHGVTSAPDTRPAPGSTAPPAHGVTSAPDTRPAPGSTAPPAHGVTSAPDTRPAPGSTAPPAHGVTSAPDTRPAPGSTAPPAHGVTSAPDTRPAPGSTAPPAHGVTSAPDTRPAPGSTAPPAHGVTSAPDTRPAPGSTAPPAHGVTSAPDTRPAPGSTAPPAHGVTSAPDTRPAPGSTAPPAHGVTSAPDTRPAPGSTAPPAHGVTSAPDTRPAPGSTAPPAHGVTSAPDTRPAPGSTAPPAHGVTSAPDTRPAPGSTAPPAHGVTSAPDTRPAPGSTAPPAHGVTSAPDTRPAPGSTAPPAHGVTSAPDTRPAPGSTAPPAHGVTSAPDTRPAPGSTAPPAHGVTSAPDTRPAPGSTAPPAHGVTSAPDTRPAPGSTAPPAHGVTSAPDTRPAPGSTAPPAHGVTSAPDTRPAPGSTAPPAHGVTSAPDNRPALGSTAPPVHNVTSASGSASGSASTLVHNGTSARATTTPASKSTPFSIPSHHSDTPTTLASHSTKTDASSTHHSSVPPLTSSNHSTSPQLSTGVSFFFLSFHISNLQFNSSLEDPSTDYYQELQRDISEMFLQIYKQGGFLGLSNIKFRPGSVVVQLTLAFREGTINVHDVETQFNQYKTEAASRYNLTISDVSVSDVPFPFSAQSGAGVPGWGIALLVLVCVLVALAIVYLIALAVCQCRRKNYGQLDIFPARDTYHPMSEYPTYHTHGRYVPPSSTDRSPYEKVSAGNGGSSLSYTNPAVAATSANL

As to “GCAGTTGATCCTTTGGATACCCTGGTTCCCTTCCTTCTCTCTTCCTCTCTCCTTCTCTCTTCCTCTCTCCTTC [S2.2-spacer]”, the binding signal (fold (mean fluorescence MCF-7/HepG2)) is 3.5.
